PMC3491106 (Biochemistry, 2012)
Residue numbers refer to the chain shown, from its start.

T1: His6-EhFormin1 GBD-FH3 domain tandem (a.a. 69-418) (E. histolytica, UniProt C4M622 69-418)
T1 sequence (looked up): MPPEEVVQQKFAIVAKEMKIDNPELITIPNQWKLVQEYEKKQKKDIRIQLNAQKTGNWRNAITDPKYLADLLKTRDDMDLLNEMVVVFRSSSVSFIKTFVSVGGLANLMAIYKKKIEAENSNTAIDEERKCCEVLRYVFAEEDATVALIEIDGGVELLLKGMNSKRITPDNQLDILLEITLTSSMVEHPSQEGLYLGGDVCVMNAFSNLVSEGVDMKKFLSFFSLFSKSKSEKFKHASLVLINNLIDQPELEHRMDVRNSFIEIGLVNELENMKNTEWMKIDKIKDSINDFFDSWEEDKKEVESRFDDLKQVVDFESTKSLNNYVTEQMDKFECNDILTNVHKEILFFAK

B1: EhRho1·GTPγS (Entamoeba histolytica Rho1, wild type, loaded with GTPγS) (natural protein, E. histolytica)
chain: MLAFSDMNTGAGKIENGKKALKIVVVGDGAVGKTCLLLAFSKGEIPTAYVPTVFENFSHVMKYKNEEFILHLWDTAGQEEYDRLRPLSYADSDVVLLCFAVNNRTSFDNISTKWEPEIKHYIDTAKTVLVGLKVDLRKDGSDDVTKQEGDDLCQKLGCVAYIEASSVAKIGLNEVFEKSVDCIFSNKPVPK
B2: EhRho1 Arg83 to Gln mutant (natural protein)
chain: B1 chain with R83Q

Tests used:
[1] = target: T1, His6-EhFormin1 GBD-FH3 domain tandem …; test: SPR
[2] = target: His6-EhFormin1 fusion (GBD-FH3 domain tandem, 40-residue linker, FH2-DAD fragment) (E. histolytica); test: SPR

Row | Binder | Kd [1] | Kd [2]
1 | B1 | ~3000 nM | 3000 nM
2 | B2 | > 100000 nM | –
